Test results: publication PMC12258621

What was measured:
[1] = target: dSpRY (catalytically inactive SpRY Cas9) (Streptococcus pyogenes) (UniProt Q99ZW2); test: single-molecule AuRBT (baseline twist shift, Langmuir fit); conditions: effective Kd for off-target binding on the tether; RNP with sgRNA3; EMSA: 20 mM HEPES pH 7.5, 100 mM KCl, 10 mM MgCl2, 1% glycerol, 0.5 mM DTT (37 C for plasmid EMSA); footprinting: 20 mM Tris pH 7.9, 24 mM KCl, 5 mM MgCl2 …
[2] = target: dSpRY (catalytically inactive SpRY Cas9) (Streptococcus pyogenes) (UniProt Q99ZW2); test: single-molecule AuRBT (hyperbolic fit of kC-I vs [RNP]); conditions: EMSA: 20 mM HEPES pH 7.5, 100 mM KCl, 10 mM MgCl2, 1% glycerol, 0.5 mM DTT (37 C for plasmid EMSA); footprinting: 20 mM Tris pH 7.9, 24 mM KCl, 5 mM MgCl2 …
[3] = target: dCas9 (catalytically inactive SpyCas9) D10A;H840A (Streptococcus pyogenes) (UniProt Q99ZW2); test: single-molecule AuRBT (kC-I linear, no saturation); conditions: initial binding Kd,init; >1 uM proposed from literature; R-loop forms; EMSA: 20 mM HEPES pH 7.5, 100 mM KCl, 10 mM MgCl2, 1% glycerol, 0.5 mM DTT (37 C for plasmid EMSA); footprinting: 20 mM Tris pH 7.9, 24 mM KCl, 5 mM MgCl2 …
[4] = target: dSpRY (catalytically inactive SpRY Cas9) (Streptococcus pyogenes) (UniProt Q99ZW2); test: EMSA; conditions: 40x plasmid competitor; 100 nM RNP, 10 nM DNA; EMSA: 20 mM HEPES pH 7.5, 100 mM KCl, 10 mM MgCl2, 1% glycerol, 0.5 mM DTT (37 C for plasmid EMSA); footprinting: 20 mM Tris pH 7.9, 24 mM KCl, 5 mM MgCl2 …

| Sequence | Kd [1] | Kd [2] | Kd [3] | binding signal [4] |
| --- | --- | --- | --- | --- |
| GGCUGCGUAUUUCUACUCUGUUGUUUUAGAGCUAGAAAUAGCAAGUUAAAAUAAGGCUAGUCCGUUAUCAACUUGAAAAAGUGGCACCGAGUCGGUGCUUCG / GTCATTGTCGCGAAGTGCAGCGAGATCGCGTTTGTACTCCAAACAGAGTAGAAATACGCAGAGCAGCGATTTCTCGTGTGCAGACA / CGAAGCACCGACTCGGTGCCACTTTTTCAAGTTGATAACGGACTAGCCTTATTTTAACTTGCTATTTCTAGCTCTAAAACAACAGAGTAGAAATACGCAGCC [sgRNA3 + Target1 NGG DNA tether] | 15 nM | 10 nM | > 80 nM | – |
| GGGACGCAUAAAGAUGAGACAAGUUUUAGAGCUAGAAAUAGCAAGUUAAAAUAAGGCUAGUCCGUUAUCAACUUGAAAAAGUGGCACCGAGUCGGUGCUUCG / CGCTCATGCTGACGCATAAAGATGAGACAATGGCGATTACAGTACGTGCG / CGCACGTACTGTAATCGCCATTGTCTCATCTTTATGCGTCAGCATGAGCG [sgRNA2 + matched target duplex (0-20 bp)] | – | – | – | 2 % bound |
| GGGACGCAUAAAGAUGAGACAAGUUUUAGAGCUAGAAAUAGCAAGUUAAAAUAAGGCUAGUCCGUUAUCAACUUGAAAAAGUGGCACCGAGUCGGUGCUUCG / CGCTCATGCTGACGCATAAAGATGAGAGTTTGGCGATTACAGTACGTGCG / CGCACGTACTGTAATCGCCATTGTCTCATCTTTATGCGTCAGCATGAGCG [sgRNA2 + target duplex with MM bubble next to PAM (3-20 bp)] | – | – | – | 29 % bound |
